The text below walks through data of US20090238823A1 (published 2009).

In experiment [1] the target is T1, Cynomolgus TSLP (mammalian produced) (cynomolgus).
T1 construct: The Biacore construct is not specified beyond mammalian production; also called Cyno TSLP; cynomolgus TSLPwtpHF
T1 chain: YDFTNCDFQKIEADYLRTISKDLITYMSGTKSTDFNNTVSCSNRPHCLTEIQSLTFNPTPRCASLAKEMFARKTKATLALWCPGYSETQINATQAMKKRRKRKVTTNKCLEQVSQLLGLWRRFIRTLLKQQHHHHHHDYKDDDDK
Description: SPR (Biacore 3000), antibody captured by anti-human Fc gamma, TSLP in solution, 25 C. (In SPR one partner is held on a chip, and binding of the other changes the refractive index at the surface.)
Description: (§1) The surface plasmon resonance experiments described in this patent application were conducted at 25° C. using a Biacore 3000 instrument (Biacore International AB, Uppsala, Sweden) equipped with a CM4 sensor chip. Anti-Fcγ specific capture antibodies were covalently immobilized to two flow cells on the CM4 chip using standard amine-coupling chemistry with HBS-EP as the running buffer. Briefly, each flow cell was activated with a 1:1 (v/v) mixture of 0.1 M NHS and 0.4 M EDC. AffiniPure Goat Anti-Human IgG, Fcγ Fragment Specific antibody (Jackson ImmunoResearch Inc. West Grove, Pa.) at 30 ug/ml in 10 mM sodium acetate, pH 5.0 was immobilized with a target level of 3,000 RUs on two flow cells. Residual reactive surfaces were deactivated with an injection of 1 M ethanolamine. The running buffer was then switched to HBS-EP+0.1 mg/ml BSA for all remaining steps.
(§2) The following antibodies were tested. […] No antibody was captured on the control flow cell surface. Human, cyno, or murine TSLP at various concentrations, along with buffer blanks were then flown over the two flow cells. The concentration ranges for human and cyno TSLP were from 0.44-100 nM while the concentration range for murine TSLP was from 8.2-6000 nM. A flow rate of 50 ul/min was used and a 2 minute association phase followed by a 10-30 minute dissociation phase. After each cycle the surfaces were regenerated with a 30 second injection of 10 mM glycine pH 1.5. Fresh antibody was then captured on the test flow cell to prepare for the next cycle.

For experiment [2], the target named is T2, Murine TSLP (murine, UniProt Q9JIE6 20-140).
T2 construct: also called Mu TSLP
T2 sequence (looked up): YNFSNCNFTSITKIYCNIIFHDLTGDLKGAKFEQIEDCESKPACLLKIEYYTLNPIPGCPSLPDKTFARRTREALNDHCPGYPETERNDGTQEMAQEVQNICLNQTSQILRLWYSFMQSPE
The description is as above.
Description: as §1, §2

The target of experiment [3] is T3, Human TSLP (mammalian produced) (human, UniProt Q969D9 29-159).
T3 construct: also called Hu TSLP; huTSLPwtpHF
Described as above.
Description: as §1, §2

In experiment [4] the target is T2, Murine TSLP. Description: SPR (Biacore 3000), antibody captured by anti-human Fc gamma, TSLP in solution.

Positions count from the first letter of the chain named.

B1: A5 IgG2 (antibody, V domains shown)
VH: QMQLVESGGGVVQPGRSLRLSCAASGFTFRTYGMHWVRQAPGKGLEWVAVIWYDGSNKHYADSVKGRFTITRDNSKNTLNLQMNSLRAEDTAVYYCARAPQWELVHEAFDIWGQGTMVTVSS
VL: SYVLTQPPSVSVAPGQTARITCGGNNLGSKSVHWYQQKPGQAPVLVVYDDSDRPSWIPERFSGSNSGNTATLTISRGEAGDEADYYCQVWDSSSDHVVFGGGTKLTVL
notes: also called L5H5
Take B1: the dissociation constant Kd in experiment [1] is 0.0512 nM; in the experiment with Murine TSLP [2], 377 nM.

B2: A2 IgG1 (antibody, V domains shown)
VH: EVQLVESGGVVVQPGGSLRLSCAASGFTFDDFTMHWVRQAPGKGLEWVSLISWDGGSTYYADSVKGRFTISRDNSKNSLYMQMNSLRTEDSALYYCARGPYYYFYGMDVWGQGTTVTVSS
VL: SSELTQDPAVSVALGQTVRITCQGDSLRTYYASWYQQKPGQAPILVISDKNNRPSGIPDRFSGSSSGNTASLTITGAQAEDEADYYCNSRDSSDNHLVVFGGGTKLTVL
notes: also called L2H2
In experiment [3], B2 displayed a Kd of 0.203 nM and a koff of 0.000349 s⁻¹. In experiment [1], this molecule returned a Kd of 0.0468 nM and an off-rate constant (koff) of 0.000104 s⁻¹.

B3: A2 IgG2 (antibody, V domains shown)
VH: B2 VH
VL: B2 VL
notes: also called L2H2
In the case of B3, the binding result with Murine TSLP [4] is given as “no binding (tested: murine TSLP 8.2-6000 nM)”. Besides, in experiment [3], the dissociation constant (Kd) came out at 0.157 nM and the koff amounted to 0.000285 s⁻¹. In addition, in experiment [1], the Kd came out at 0.0376 nM and the koff was 9.42e-05 s⁻¹.

B4: A3 IgG4 (antibody, V domains shown)
VH: QVQLVQSGAEVKKPGASVKVSCKASGYTFTDYYMYWVRQAPGQGPEWMGWINPNSGGTNYVQKFQGRVTMTRDTSISTAYMELSRMRSDDTAVYYCARDGGSSGWPLFAYWGLGTLVTVSS
VL: QSVLTQPPSVSGAPGQRVTISCTGSSSNIGAGFDVHWYQQLPGTAPKLLIYDNNNRPSGVPDRFSGSKSGTSASLAITGLQAEDEADYYCQSYDSNLSGSIVVFGGGTKLTVL
notes: also called L3H3
With B4, in experiment [3], the affinity, expressed as Kd, was 0.17 nM and the koff turned out to be 0.00027 s⁻¹.

B5: A4 IgG4 (antibody, V domains shown)
VH: QVQLVQSGAEVKKPGASVKVSCKASGYIFTGDYMHWVRQAPGQGLEWMGWINPNSGGTNHARKFQGRVTMTRDTSISTAYMELSRLRSDDTAVYYCVRDRGTSGWPLFDYWGQGTLVTVSS
VL: B4 VL with Q40L, Y51F
notes: also called L4H4
Take B5: in experiment [3], the Kd turned out to be 0.34 nM and the dissociation rate constant (koff) came out at 0.00033 s⁻¹.

What is called Kd is the constant that tells how readily two partners part at equilibrium. A lower Kd goes with higher affinity. The term koff denotes the rate constant with which the complex falls apart. A higher koff goes with a short-lived complex.
